# According to patent publication US20210340207A1 (Merck Sharp & Dohme, published 2021):
# *1 amine or outer side, *2 acyl side, *3 side chain or, on linkers, in order; H or OH if unused. [ ]: non-standard residue; d: D form. pAMF = para-azidomethylphenylalanine, [N-]=[N+]=NCc1ccc(C[C@H](N[*:1])C(=O)[*:2])cc1
# T1: human IL-2Rαβγc (on Kit225-STAT5 reporter cells, NK-92 cells, primary Treg cells) (human, UniProt P01589 22-272; P14784 27-551; P31785 23-369)
# T1 sequence (looked up) 1: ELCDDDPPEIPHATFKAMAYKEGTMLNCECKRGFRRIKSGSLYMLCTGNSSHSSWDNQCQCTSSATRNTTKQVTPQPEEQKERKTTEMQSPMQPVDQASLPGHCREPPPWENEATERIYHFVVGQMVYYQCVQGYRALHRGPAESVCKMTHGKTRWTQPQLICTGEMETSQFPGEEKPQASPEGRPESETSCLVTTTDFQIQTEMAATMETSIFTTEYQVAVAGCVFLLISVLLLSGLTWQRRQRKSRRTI
# T1 sequence (looked up) 2: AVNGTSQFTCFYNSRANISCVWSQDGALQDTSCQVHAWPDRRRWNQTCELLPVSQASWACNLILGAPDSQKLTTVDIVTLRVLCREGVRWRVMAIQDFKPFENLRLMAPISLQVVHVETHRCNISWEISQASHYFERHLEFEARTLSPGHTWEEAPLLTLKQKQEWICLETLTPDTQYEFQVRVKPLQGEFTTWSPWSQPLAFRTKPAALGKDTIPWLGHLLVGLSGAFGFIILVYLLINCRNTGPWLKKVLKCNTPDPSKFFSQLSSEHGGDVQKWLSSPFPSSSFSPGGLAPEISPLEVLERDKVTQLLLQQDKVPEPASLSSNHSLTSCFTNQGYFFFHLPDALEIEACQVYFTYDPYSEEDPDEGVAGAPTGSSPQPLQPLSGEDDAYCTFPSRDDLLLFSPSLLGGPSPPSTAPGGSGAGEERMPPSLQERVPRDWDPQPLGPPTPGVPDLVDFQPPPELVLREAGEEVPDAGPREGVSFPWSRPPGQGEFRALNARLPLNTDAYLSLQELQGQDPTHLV
# T1 sequence (looked up) 3: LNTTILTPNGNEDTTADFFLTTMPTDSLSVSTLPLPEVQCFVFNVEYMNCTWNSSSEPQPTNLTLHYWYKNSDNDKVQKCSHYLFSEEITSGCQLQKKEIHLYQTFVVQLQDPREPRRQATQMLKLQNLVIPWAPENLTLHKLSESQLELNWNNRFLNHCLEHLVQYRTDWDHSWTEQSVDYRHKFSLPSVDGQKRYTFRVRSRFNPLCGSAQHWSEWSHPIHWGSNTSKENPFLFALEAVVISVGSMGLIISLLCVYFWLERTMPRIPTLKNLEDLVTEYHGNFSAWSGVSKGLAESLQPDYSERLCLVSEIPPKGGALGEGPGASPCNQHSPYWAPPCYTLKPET
# T2: Biotin-IL-2Rα-His (UniProt P01589 22-213, limits assumed, biotin-labeled (site not stated))
# T2 construct: also called biotin-labeled IL-2Rα; not shown: His tag
# T2 sequence (looked up): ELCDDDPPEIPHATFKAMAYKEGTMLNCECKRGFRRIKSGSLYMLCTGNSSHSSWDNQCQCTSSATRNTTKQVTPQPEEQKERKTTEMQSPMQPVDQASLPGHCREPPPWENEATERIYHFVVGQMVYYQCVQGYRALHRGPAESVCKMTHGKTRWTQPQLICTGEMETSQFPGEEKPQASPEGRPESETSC
# T3: Biotin-IL-2Rβ-His (UniProt P14784 27-239, limits assumed, biotin-labeled (site not stated))
# T3 construct: also called biotin-labeled IL-2Rβ; not shown: His tag
# T3 sequence (looked up): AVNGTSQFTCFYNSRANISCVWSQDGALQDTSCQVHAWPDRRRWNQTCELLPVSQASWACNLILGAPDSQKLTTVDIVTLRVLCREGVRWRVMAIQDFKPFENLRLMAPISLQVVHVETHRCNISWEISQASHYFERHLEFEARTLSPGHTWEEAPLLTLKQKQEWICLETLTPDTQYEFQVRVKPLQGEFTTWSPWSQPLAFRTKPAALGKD
# T4: mouse IL-2Rαβγc (on CTLL2-STAT5 reporter cells) (mouse, UniProt P01590 22-268; P16297 27-539; P34902 23-369)
# T4 sequence (looked up) 1: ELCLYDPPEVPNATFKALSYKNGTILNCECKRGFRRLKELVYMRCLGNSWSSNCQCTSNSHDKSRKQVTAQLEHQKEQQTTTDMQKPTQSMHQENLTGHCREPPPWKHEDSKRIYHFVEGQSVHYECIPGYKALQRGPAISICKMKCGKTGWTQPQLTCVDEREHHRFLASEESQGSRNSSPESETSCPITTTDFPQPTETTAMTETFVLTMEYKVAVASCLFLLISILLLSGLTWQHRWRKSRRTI
# T4 sequence (looked up) 2: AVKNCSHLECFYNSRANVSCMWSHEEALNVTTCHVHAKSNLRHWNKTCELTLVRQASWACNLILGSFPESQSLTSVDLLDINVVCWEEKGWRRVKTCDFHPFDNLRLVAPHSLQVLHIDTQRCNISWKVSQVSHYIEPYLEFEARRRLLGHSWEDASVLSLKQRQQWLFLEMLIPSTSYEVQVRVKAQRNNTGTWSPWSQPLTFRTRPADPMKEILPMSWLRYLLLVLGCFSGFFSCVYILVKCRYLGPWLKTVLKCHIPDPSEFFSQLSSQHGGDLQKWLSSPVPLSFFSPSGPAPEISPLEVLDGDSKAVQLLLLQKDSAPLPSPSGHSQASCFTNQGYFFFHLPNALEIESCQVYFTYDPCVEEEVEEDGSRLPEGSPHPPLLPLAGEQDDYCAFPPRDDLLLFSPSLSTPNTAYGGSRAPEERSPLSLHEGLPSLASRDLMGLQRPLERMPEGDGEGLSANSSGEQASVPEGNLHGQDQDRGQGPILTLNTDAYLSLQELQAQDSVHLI
# T4 sequence (looked up) 3: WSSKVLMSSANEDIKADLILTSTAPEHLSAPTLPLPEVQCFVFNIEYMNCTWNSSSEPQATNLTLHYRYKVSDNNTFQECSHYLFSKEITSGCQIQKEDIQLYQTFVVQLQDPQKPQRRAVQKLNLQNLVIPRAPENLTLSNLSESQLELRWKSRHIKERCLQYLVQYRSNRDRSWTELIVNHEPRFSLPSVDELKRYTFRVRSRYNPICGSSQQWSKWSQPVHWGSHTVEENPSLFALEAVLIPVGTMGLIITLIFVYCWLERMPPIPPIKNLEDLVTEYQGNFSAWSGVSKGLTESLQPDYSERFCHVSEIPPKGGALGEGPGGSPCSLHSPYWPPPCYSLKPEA
# T5: human IL-2Rβγc (on DERL-7 cells, U2OS IL2RB/IL2RG cells, CD25 knockout Kit225-STAT5 cells, primary CD8+ CTLs) (human, UniProt P14784 27-551; P31785 23-369)
# T5 sequence (looked up) 1: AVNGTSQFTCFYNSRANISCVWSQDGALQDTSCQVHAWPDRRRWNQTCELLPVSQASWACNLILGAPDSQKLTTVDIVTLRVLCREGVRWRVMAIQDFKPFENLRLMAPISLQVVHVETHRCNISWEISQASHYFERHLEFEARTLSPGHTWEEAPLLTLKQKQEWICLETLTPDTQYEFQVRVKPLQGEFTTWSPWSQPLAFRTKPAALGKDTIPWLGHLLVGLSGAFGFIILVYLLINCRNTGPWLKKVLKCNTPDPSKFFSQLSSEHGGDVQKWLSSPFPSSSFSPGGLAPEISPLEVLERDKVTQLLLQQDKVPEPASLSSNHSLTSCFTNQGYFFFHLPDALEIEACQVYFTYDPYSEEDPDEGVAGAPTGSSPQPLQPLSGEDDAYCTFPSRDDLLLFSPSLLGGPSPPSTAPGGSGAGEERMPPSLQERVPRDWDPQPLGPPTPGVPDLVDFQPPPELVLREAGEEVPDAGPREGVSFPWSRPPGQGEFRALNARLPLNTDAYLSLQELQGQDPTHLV
# T5 sequence (looked up) 2: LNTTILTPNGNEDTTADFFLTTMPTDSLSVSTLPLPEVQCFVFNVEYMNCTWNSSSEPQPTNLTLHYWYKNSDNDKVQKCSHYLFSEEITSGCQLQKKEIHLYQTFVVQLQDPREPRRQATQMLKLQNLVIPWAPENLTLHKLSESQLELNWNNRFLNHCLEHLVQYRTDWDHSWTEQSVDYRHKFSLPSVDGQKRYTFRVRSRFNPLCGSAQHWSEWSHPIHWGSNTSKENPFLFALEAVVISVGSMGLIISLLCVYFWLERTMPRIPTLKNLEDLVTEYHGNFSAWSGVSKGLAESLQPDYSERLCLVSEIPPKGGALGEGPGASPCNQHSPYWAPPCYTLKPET
# Tests used:
# [1] = biological target: T1, human IL-2Rαβγc (on Kit225-STAT5 …); test: cell-based or functional assay
# [2] = biological target: T2, Biotin-IL-2Rα-His; test: SPR (Biacore T200)
# [3] = biological target: T3, Biotin-IL-2Rβ-His; test: SPR (Biacore T200)
# [4] = biological target: T4, mouse IL-2Rαβγc (on CTLL2-STAT5 …); test: cell-based or functional assay
# [5] = biological target: T5, human IL-2Rβγc (on DERL-7 cells, U2OS …); test: cell-based or functional assay
Binder,"Kit225-STAT5 reporter, fold lower activity than aldesleukin [1] [fold]",Kd [2] [nM],fold reduction over wt [2] [fold],Kd [3] [nM],fold reduction over wt [3] [fold],CTLL2-STAT5 EC50 [4] [nM],U2OS-IL2Rbg EC50 [5] [nM]
"Ald_S4pAMF/R37A/F41K (MUT1) (ligand, ends and bridges not checked) PTS[pAMF]STKKTQLQLEHLLLDLQMILNGINNYKNPKLTAMLTKKFYMPKKATELKHLQCLEEELKPLEEVLNLAQSKNFHLRPRDLISNINVIVLELKGSETTFMCEYADETATIVEFLNRWITFSQSIISTLT",190,,,,,,
Ald-6HIS_E60T/E61S (ligand) PTSSSTKKTQLQLEHLLLDLQMILNGINNYKNPKLTRMLTFKFYMPKKATELKHLQCLETSLKPLEEVLNLAQSKNFHLRPRDLISNINVIVLELKGSETTFMCEYADETATIVEFLNRWITFSQSIISTLTGGSHHHHHH,,800,80,2000,5,0.525,1.95
Ald-6HIS_E61S/P64A (ligand) PTSSSTKKTQLQLEHLLLDLQMILNGINNYKNPKLTRMLTFKFYMPKKATELKHLQCLEESLKALEEVLNLAQSKNFHLRPRDLISNINVIVLELKGSETTFMCEYADETATIVEFLNRWITFSQSIISTLTGGSHHHHHH,,500,50,500,1,0.213,0.634
Ald-6HIS_E61S/P64A/Y106A (ligand) PTSSSTKKTQLQLEHLLLDLQMILNGINNYKNPKLTRMLTFKFYMPKKATELKHLQCLEESLKALEEVLNLAQSKNFHLRPRDLISNINVIVLELKGSETTFMCEAADETATIVEFLNRWITFSQSIISTLTGGSHHHHHH,,,,,,> 7,5.77
